Reference: a protein production outcome set (Wang et al. 2014)

Assay: label from the status in PepcDB records
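Further: failed if final PepcDB status was selected cloned or expressed and not failed if soluble or beyond.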

Sequence	protein production
METLLHAKLLLSAEVESLKSGSFDQTYVKKAEHIISGESYQLVQQFVDKFKGKISISGEISTSSVIAALNDFLNVEVFKMGQENEMLFLAIALLQTFIQNNYTGPAARLKAISGLFGKTGIEIGAVNTALSRSLAIMGQPAYEFMDDPLYLVLSLLLLERITGQKSLFDVTPDQEIPLPIISAESTPGLLAVAYWWWARALLTQLSLIPEPSGFQASVASAIYQSADLAYAITKELPESIHEDFKRELCAMYYLENVKCSLAINTEHLCLPSLTRAKKITNFEFVMTGARATRTKYQQKAHAGLIILAKSFTFQNFALRTTSATPETFALESDLLLEKPHFESIADEPLDEQIYSKRQKVDLNEGYEEDKLLPLALRQENIPKLLLDLNPNDQPTLSDYDNIQLLLRLYTIKNTTPAKDPLVEEELTALLSRILYQNGDKNWSIFARSLWERSIIETTKAKTIERGLLQMQSLVEELDLKIKSKLVPSSSEINVASRLSYIHQLPFIPRWQLDATLAEKYMSLGILKSAVEIYERLGMACETALCYAAVGDEKKAEEILLQRINENDSDARAYSILGDIKQDPSLWEKSWEIGKYVNAKNSLAKYYFNPPPKSGAQPNYSATLKHLNDSLRQYPLSFETWYFYGCVGLQCGKMQIAAEAFTRCVSLDPYHALSWSNLSAAYTKMDKLKEAYSCLKRAISCDAQKNWKIWENYMLVAVKLNEWEDVLTACKQLVSIRRDKSGEGSIDLPIIEKLVELLVTSEYPEEPQQLSYFQKSCTEFICNTLPQVITTSARCWRLVARVELWRKRPWAALECHEKAYRAISHNPDLEVEEKVWNDTVDACEDLVAAYESLGEMEGKYGPGSLVCKDWKYKCRSTIKALMSKGKGRWDDSPGWDRLVEARSQI	failed
METLSDVFATFSQRGDTTAFVHRTGVRRYVFTYLDLHALSLRMNRWLADQGVGEGDRVVLWGPNSPWWAVAFWGIVTRGAVAVPVDFMSGAERAEIIAGLTDAKLVIQSRDKLEHHHHHH	not failed
METNRPSPDALLVNLQEEADSSVGKLKIYFGFAAGVGKTYAMLSDAKDQLAAGVDVVAGYIEPHAREETLRMLEGIPIIPPKAINHKNIALKEFDLDEALKRKPELILVDELAHTNASGVRNKKRFQDVEELLQAGIDVYTTVNVQHIESLNDIVEGITKVAVRETIPDYVFDEADRVKLIDIEPDELLKRLEQGKIYQPARAKTAMQNFFTRENLKLLREIAMRKAADRI	not failed
METPNSTGGTPPTMRVSVVLCTHTMERYDDCRAAAESVLAQTYDDVELVLVSDGNRDVYKQYQSDFGNRDDVLTHCNDANVGLLESRNNGAEVATGDVVAFIDDDAIADEEWVAALVDAYEQQDALAVGGRMTPAWVAGKPSFLPAEFYWLIGVTHRGFGPNGDPDEPGVVRNTFGSNISFDRDVFLELGGFDDDIGGRQGEKNLQGGETELCARLRTEYDEGVYYTPEALVAHKIFDYRTDPGWLLDRAFWQGYSKRGMEVFVPESTGEESDFLSDLLFRFAPERIWGLVRAPSVAGVLQFVFLFALTAFVGFGYLYGMTVWG	failed
METRAPFVIVGAFVLAAIFAVFGFVFWLHNTSGVGARTSYHVQFRDPVPGLLVGAAVLFNGIRVGEVTALALAPDDPRRVDATIAVAPSTPVRPDTKVGLDFQGLTGVPVVALEGGKQLSGSAIATTLVAEPGAGMSMTQAAREALRKVDSVLGENSGPLKDTIANFKTFSEWLAGKTEKLDGILGGVERMTGANEPVVKKVVYDLSAATGFPPPSPPLKGQLTIPESNTVVLFDSQKMLLAPGLEVPAFAGAQWSDSLPKMLQEKLIQSFENYDIAHAPMRPNDAVQPDYQLLTDIRSFQVIGEGDALRAEIAFSAKIIDKDGKLVAARLFQQASPLDKPEPAAAVSAFDKSFDTIAKELVPWAAQALASGRAEVEPAATTSRPITAPRSSGTTKGR	failed
METSRVEEWFERGVEALGHDQVYLARSCFEHVARVNQHPAASSYLALCQAKTRGKFSDAIALARESIAREPHNPLLYQNLGRIYQLAGMRMDAVEVLREGVRRGAGEEAVAELNRIGTRKQPPFRRLHRNHPLNKYVGKLLARLRLR	failed
METTHYSIAQHFSSGDFPAVYACFNDIIEWNIIGNQVVKGKADVIDFCNKMLPEMKGAVLTNDNVIQNENQIVIEGKCRYFDAEGKEAFVSYCDIYRFENDTIKTITSYCI	not failed
MEVHAADQYLVAPGEADLLEVHARLAGTGLFPPFPPVELPGGVGGLVARGGFAQTFFFPAEVLGLTFRTPKGRRVRAGGVVVKNVQGYDLVRLFVGSFGLLGRAEEVVLRLRPGRAQAFLRRPFSGSFPRLVPTPRFLFALEDEEGPWLYAYHFGHPKEVERFREAFGGEEARPLDLRPRFPRGLGLGEGPLWDLRFRYQDGGASPPPPPAFLRLARVL	not failed
MEVMVFTPKGEIKRLPQGATALDFAYSLHSDLGDHCIGAKVNHKLVPLSYVLNSGDQVEVLSSKSQQPTELEHHHHHH	not failed
MEVNRLSALTPPMGWNSWDCYGASVTEEEVLGNAEYMANHLKKYGWEYIVVDIQWYEPTANSSAYNPFAPLCMDEYGRLLPATNRFPSAKNGAGFKPLSDAIHDLGLKFGIHIMRGIPRQAVYENSPVLGSTKTAREIAHTNSICPWNTDMYGVDPTKEGAQSYYNSLFELYAQWGVDFVKVDDIAASRLYDTHLEEIKMIQRAIQACGRPMVLSLSPGPAPIKYAHHFKTNANMWRITDDFWDDWSLLYQMFERCEVWEKHIGTGHWPDCGMLPLGHIGIRSVDGPGGDRWTRFTKDEQLTMMNLWAICHSPLMFGGELRDNDEWTLSLLTNEGILSINQKSVLNRFVYREEDKVAWAANGRNGEAYVALFNLHDQQKTLQFRLDMVGIMETVQLFNVWDRSFLQSLAPSESFQIELKPHQSMMLKLSPDR	not failed
MEVPKEQIATLIEHGLYDSAEMLGCFLVSSPTVSAETSPQLKAENLILLGDALFHQREHRRAIHTYKQALHHYTRIPKQSSGISRSSLSLSTRSSVNASSISAINENEVRFKIASSHFALNETKAAIAEMESVKTRSLEMNILMAKLHRNSGYNRGAIAFYKECLRQCPYVLEAVIGLAELGVSAKDIISSFTQTSNRSAKVSLDQIDPTRWLQRYVEAQCCVASHAYKGALELFAELLQRFPNNVHLLTETAKVEAIIGKNDEAIMRFEKVRSIDPYTLTSMDEYAMLLQIKCDYSRLNKLVHDLLSVDHTRAEVFVALSVLWERKDARTALSYAEKSIRVDERHIPGYIMKGNLLLQAKRPEAAAIAFRAAQNLRSDLRSYQGLVHSYLAFGKTKEALYTAREAMNAMPQSAKALKLVGDVHAFTSSGREKAKKFYESGLRLEPGYLGAVLALAELHLMEGRNGDAVSLLERYLKDYADDSLHVKLAQVFAATNMLQDSLSHFQAALRINPQNEAAKKGLDRLEKQMKGIDPDATDENDENDVEDVDGDTEEAELM	failed
MEVSDGSSQVLNSMKHVASLRADEDPDETSLLLSSTLLDLVVFRLVLVLYCVRVLMLDQYQETIALSQEVMMEDGRREFNVPMNCPIPVVKRRMKAPKHVDEDLFKIFPQATTYLRQIQKGGGSGCFEFIRGEVCTKDLSQNNTFYFIF	failed
MEYEHITHSFEPVYDENSRILILGTLPSVASRENNFYYGHKQNRFWKLLAYLLDEPVPETIDEKKYMLFKNHIAIWDVIQSCDIKGSSDSSIKNVEPTDIRKILETADIKQVYANGNKAGALYKKYQLPLTGMEAVTLPSTSPANAAWSFERLCEAWTRILANL	failed
MEYETILKLFSLVYIIIMMTIDFWIFGLILRREYVRVKGLLIILSIVLMMGLESLALAQLNVLLFISGMLLVLIPLFISFLIKDHSINVNRNWKYGLLLSSVIVFDELAMGYLYGNYFTPLPNPLLTAINNPAYGAMMLGDAIFFLYILRRRSIMEFAITTFAISMAFMPSLYLMDRMLEFIMSILTSLFMIVNIVLLYLTEMRMLTFQGQLVAISLSLFNLLMMLGLTFFASLSNLYFLTLSMIASMVWYFFLIFYNVPAKKISPKPFLFLVLVNLTELAMGFGESVLGFNLTNSLFVNTMNCEMMIGSHMMRSPFNNPFWWLFPINPLTMITMTIMKYNLLGKLVMVPFMTIMTTTMAPFYVIMMGAEMSYLVYERFKKVKTRYLKAWTLGILTGIPIFVVLIPYYTNYYIFGMSGMIFPVTLAPFVISLVVIALFSTLFGRGVYCNLVCMSAHMWSNVFYEQFSAKKNSKFWDYLRWIFLVPLIIAFYLFVMMGLGKIKLPIDPLDFYGMFTLNYIWWFFYFLTPIFGIYSCARQGWCGFGTFNGIFNKVLFKIRAKDVNTCKECVSKECDTSCPVKIPISNDILKKGYSNRISCIVCARCVDACDNVEIVNVVTILKNRESKSF	failed
MEYFLENPDHLWYLIAGISFVIELSIMGLSGPLLFFAIASLTTGILVTVGFVEGWQSEIFTVGVLTAIIAAILWKPLKSLQNSKDTTDNSSDMVGLTVLASTEINVSSGSIRYSGIDWQARLAEEANGESISAQSQCVIVAITGNIMLVKSL	failed
MEYHLQTPLKFEDIEKLNAGDIVYISGEILTARDEAHARILEMEERGEELPFSLEGAVIYHCGPLMQQTESGWKVISAGPTTSGRMSKMTPPLLKTHKVRAIIGKGGMKNVADSLKSCCVYLAYTGGCAALAAELIKDVKTVHWPDLGMPEAVWILRVEKFGPLIVGIDAKGKDIFSEVREKAEKALEELQK	failed
MEYKPMPYPIIDSHCHLDFPKFNPDREEAIQRARKAGVVGMVNSGISLKGNRISLELAEKNEDIHAALGLSPDIGREGSDKDINAILAQIEANAGKAVAIGEAGLDFQDCKTDEERRRQTASFKKVIELAKNLEKPLVVHARMAEAEVLELARDVDTVIYHCYSGSVETMKEIVDAGYYISLATLVCFSEHHQTLAAEVPPENLLLETDSPFLSPRRGRNEPAFIVDSIPVVAEYKEMEPAEIAKFATENARRVFKILEHHHHHH	failed
MEYLGPVLWSPAGKPPTWWDSLPTDRPIVYATLGTSGGRNLLQLVLNALAELPVTVIAATAGRSDLKTVPANAFVADYLPGEAAAARSAVVVCNGGSLTTQQALVAGVPVIGVAGNLDQHLNMEAVERAGAGVLLRTERLKSQRVAGAVMQVISRSEYRQAAARLADAFGRLEHHHHHH	failed
MEYQHWLREAISQLQASESPRRDAEILLEHVTGRGRTFILAFGETQLTDEQCQQLDALLTRRRDGEPIAHLTGVREFWSLPLFVSPATLIPRPDTECLVEQALARLPEQPCRILDLGTGTGAIALALARERPDCEITAVDRMPDAVALAQRNAQHLAIKNIHILQSDWFSALAGQQFAMIVSNPPYIDEQDPHLQQGDVRFEPLTALVAADSGMADIVHIIEQSRNALVSGGFLLLEHGWQQGEAVRQAFILAGYHDVETCRDYGDNERVTLGRYYQ	failed
MEYQLQQLASLTLVGIKETYENGRQAQQHIAGFWQRCYQEGVIADLQLKNNGDLAGILGLCIPELDGKMSYMIAVTGDNSADIAKYDVITLASSKYMVFEAQGAVPKAVQQKMEEVHHYIHQYQANTVKSAPFFELYQDGDTTSEKYITEIWMPVKG	not failed
MEYSTDLGRRVLLTLAGVALLLVVGLVLSQFLPTLVFTVFLYYASRPIYRRLGRLPLPKSFLKRAVPYQKQVHAAATIFFFLLPFVVLVGYTLVLVIPELQSFFGEGGLGAAYLSQFQELQGGSPPGPLADLGFSEVLAMGPAEVIDLLRNATVQSWLGRVSDTLIGSLSLLTSLLLRVFIMFAGTYYLLTDGPRLVGWFLDTFDGSGVLREYAAAVDEELSSILFGNILNALVTGVIGIFVFSLYNLVAPGSVQIPFAPLVGALTGIGSLIPVVGMKIVYLPVAVLLAVSAVVTGQTAALAWVALFLVVTLVVVDTIPDFLIRPYVSGDLTHVGLLMFAYILGPIAFGFYGIFLGPMLLVLAAQFFRIIVPYIITGTVETTQTSLSEYDSGES	failed
